Reference: patent US20250215097A1 (BEIJING TIANNUOJIANCHENG PHARMA TECH, published 2025)
Positions count from the first letter of the chain named.

B1: 87D8 anti-CCR8 chimeric antibody (antibody, V domains shown)
VH: EVQLVESGGGLVQPKGSLRLSCAASGFTFNTYAMNWVRQAPGKGLEWIARIRSKSNNYATYYADSVKDRFTISRDDSQSMLYLQMNNLKTEDTAMYYCVRGKEAGAYYAMDYWGQGTSVTVSS
VL: DIVMTQAAPSVPVTPGESVSISCRSSKSLLHSNGNTYLYWFLQRPGQSPQLLIYRMSNLASGVPDRFSGSGSGTAFTLRISRVEAEDVGVYYCMQHLEYPLTFGAGTKLELK
B2: 144D2 anti-CCR8 chimeric antibody (antibody, V domains shown)
VH: B1 VH with R19K, T31A, Y32F, I48V, K67I
VL: B1 VL with L111I
B3: 102H5 anti-CCR8 chimeric antibody (antibody, V domains shown)
VH: QVQLVESNGRLVQPKGSLKLSCAASGFTFNAYAMNWVRQAPGKGLEWVARIRSKSNNYATYYADSVKDRFTISRDDSQNMLYLQMNNLKTEDTAMYFCVRQKFGARGYYALDFWGQGATVTVSS
VL: DIVLTQSPASLAVSLGQRATISCRASESVEYYGTSLMQWYQQKPGQPPKLLIYAASNVESGVPARFSGSGSGTDFSLNIHPVEEDDIAMYFCQQSRKVPYTFGGGTKLEIK
B4: 109F6 anti-CCR8 chimeric antibody (antibody, V domains shown)
VH: B3 VH with N79S, T119S
VL: DIVLTQSPASLAVSLGQRATISCRASKSVSTSGYSYMHWYQQKPGQPPKLLIYLASNLESGVPARFSGSGSGTDFTLNIHPVEEEDAATYYCQHSRELPPTFGGGTKLEIK
B5: 110G2 anti-CCR8 chimeric antibody (antibody, V domains shown)
VH: B3 VH with N79S, T119S
VL: EILLTQSPAIMSASPGEKVTMTCRASSSVSSSYLHWYQQKSGASPKLWIYSTSNLASGVPARFSGSGSGTSYSLTISSVEAEDAATYYCQQYSGYPYTFGGGTKLEIK
B6: 113B3 anti-CCR8 chimeric antibody (antibody, V domains shown)
VH: B3 VH with Q1E, R10G, N79S, A105S
VL: QIVLTQSPAIMSASLGERVTMTCTASSSVSSSYLHWYQQKPGSSPKLWIYSTSNLASGVPARFSGSGSGTSYSLTISSMEAEDAATYYCHQYHRSPRTFGGGTRLEIK
B7: 116F10 anti-CCR8 chimeric antibody (antibody, V domains shown)
VH: B3 VH with Q1E, N8Y, R10G, M80I, T90I, A105S, T119S
VL: EIVLTQSPAIMSVSPGEKVTMTCRASSSVSSSYLHWYQQKSGASPKLWIYSTSTLASGVPARFSGSGSGTSYSLTISSVEAEDAATYYCQHYTVYPLGTFGGGTKLEIK
B8: 139A9 anti-CCR8 chimeric antibody (antibody, V domains shown)
VH: B3 VH with N79S, T119S
VL: ENVLTQSPTTMAASPGEKITITCSASSSISSNYLHWYQQKPGFSPKLLIYRTSNLASGVPARFSGSGSGTSYSLTIGTMEAEDVATYYCQQGSSIPLTFGAGTKLELK
B9: h87D8 H1K1 (antibody, human IgG1, V domains shown)
VH: B1 VH with K15G, I48V, D68G, M80S, N87S, K89R, T90A, M95V, S118L
VL: DIVMTQSPLSLPVTPGEPASISCRSSKSLLHSNGNTYLYWFLQKPGQSPQLLIYRMSNLASGVPDRFSGSGSGTDFTLKISRVEAEDVGVYYCMQHLEYPLTFGQGTKLEIK
notes: Humanized; also called h87D8 VHv1+h87D8 VKv1
B10: h144D2 H1K1 (antibody, human IgG1, V domains shown)
VH: EVQLVESGGGLVQPGGSLRLSCAASGFTFNAFAMNWVRQAPGKGLEWVARIRSKSNNYATYYADSVKGRFTISRDDSQSSLYLQMNSLRAEDTAVYYCVRGKEAGAYYAMDYWGQGTLVTVSS
VL: B9 VL
notes: Humanized; also called h144D2 VHv1+h87D8 VKv1
B11: 29A8 Fab antibody (Fab, V domains shown)
VH: B1 VH with R19K, T31A, Y32F, I48V, K67I
VL: B1 VL with R82K, L101F, A105G, L111I
notes: detected with anti-human IgG F(ab')2; also called clone 29A8
B12: 30A7 Fab antibody (Fab, V domains shown)
VH: B1 VH with E1Q, R19K, I48V, N57Y, V99L
VL: B1 VL with L101F, L111I
notes: also called clone 30A7
B13: h87D8 H1K1 hIgG1 e5 (antibody, V domains shown)
VH: B10 VH with A31T, F32Y
VL: DIVMTQSPLSLPVTPGEPASISCRSSKSLLHSNGNTYLYWFLQKPGQSPQLLIYRMSNLASGVPDRFSGSGSGTDFTLKISRVEAEDVGVYYCMQHLEYPLTFGQGTKLEIKR

target: T1, human CCR8 (human, UniProt P51685 1-355); test: cell-based or functional assay
T1 sequence (P51685 whole entry): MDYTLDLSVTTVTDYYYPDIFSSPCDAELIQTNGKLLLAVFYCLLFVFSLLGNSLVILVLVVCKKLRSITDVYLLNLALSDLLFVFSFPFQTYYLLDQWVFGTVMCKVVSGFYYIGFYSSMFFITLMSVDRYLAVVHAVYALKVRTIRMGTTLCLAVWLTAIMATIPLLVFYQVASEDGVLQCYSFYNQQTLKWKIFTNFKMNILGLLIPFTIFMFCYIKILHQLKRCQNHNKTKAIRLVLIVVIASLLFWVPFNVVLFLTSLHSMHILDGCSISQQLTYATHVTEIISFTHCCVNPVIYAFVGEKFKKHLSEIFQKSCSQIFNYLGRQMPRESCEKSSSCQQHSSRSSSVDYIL

Row | Binder | ADCC EC50 (nM), NK92-CD16A effectors, HEK293-hCCR8 targets, LDH release [nM]
1 | B1 | 0.1
2 | B2 | 0.07
3 | B3 | 0.06
4 | B4 | 0.07
5 | B5 | 0.04
6 | B6 | 0.04
7 | B7 | 0.1
8 | B8 | 0.06

target: T1, human CCR8; test: flow cytometry, chimeric IgG on CHO-hCCR8 cells
Protocol: (§1) 5×10⁴ CHO-hCCR8 or CHO-cynoCCR8 cells were added per well in a 96-well U-shaped plate and centrifuged to discard the supernatant, 100 μL of a gradiently diluted anti-CCR8 chimeric antibody or anti-KLH isotype control antibody was added per well and the mixture was incubated on ice for 60 minutes. After the unbound primary antibody was washed away, 50 μL of a secondary antibody AlexaFluro647 anti-human IgG (Jackson Immuno Research #109-606-170) was added per well and the mixture was incubated on ice for 30 minutes. After the washing, 50 μL of 5 μg/mL of a PI/BSA solution was added to each well and the mixture was incubated on ice for 5 minutes. Then excess secondary antibody was washed away with 0.5% BSA, the cells were resuspended by adding a PBS solution, and binding of the antibody to the cells was detected using a flow cytometer (Intellicyte iQue). The fluorescence value of a Pi-negative cell population was analyzed. Cell-binding curves were fitted by Graphpad Prism 7 (FIG. 2). The chimeric antibodies of 87D8, 102H5, 109F6, 110G2, 113B3, 139A9, 144D2, etc. all bound with high affinities to human CCR8+ cells CHO-hCCR8 and cynomolgus monkey CCR8+ cells CHO-cynoCCR8.

Row | Binder | EC50 [nM]
9 | B1 | 0.71
10 | B2 | 1.08
11 | B3 | 0.46
12 | B4 | 0.2
13 | B5 | 0.45
14 | B6 | 0.4
15 | B7 | 0.58
16 | B8 | 0.49

target: T2, cynomolgus monkey CCR8 (cynomolgus monkey, UniProt O97665 1-356 (rhesus entry)); test: flow cytometry on CHO-cynoCCR8 cells
T2 construct: Full-length, stably expressed on CHO cells; also called cynoCCR8; CHO-cynoCCR8
Protocol: (§2) 5×10⁴ CHO-hCCR8 or CHO-cynoCCR8 cells were added per well in a 96-well U-shaped plate and centrifuged to discard the supernatant. 100 μL of a gradiently diluted anti-CCR8 chimeric antibody was added per well and the mixture was incubated on ice for 60 minutes. After the unbound primary antibody was washed away, 50 μL, of a secondary antibody AlexaFluro647 anti-human IgG (Jackson Immuno Research #109-606-170) was added per well and the mixture was incubated on ice for 30 minutes. After the washing, 50 μL of 5 μg/mL of a Pi/BSA solution was added to each well and the mixture was incubated on ice for 5 minutes. Then excess secondary antibody was washed away with 0.5% BSA, the cells were resuspended by adding a PBS solution, and binding of the antibody to the cells was detected using a flow cytometer (BD Celesta). The fluorescence value of a PI-negative cell population was analyzed. Cell-binding curves were fitted by Graphpad Prism 7.

T2 sequence (O97665 other isoform, or with tags, fused parts or gaps): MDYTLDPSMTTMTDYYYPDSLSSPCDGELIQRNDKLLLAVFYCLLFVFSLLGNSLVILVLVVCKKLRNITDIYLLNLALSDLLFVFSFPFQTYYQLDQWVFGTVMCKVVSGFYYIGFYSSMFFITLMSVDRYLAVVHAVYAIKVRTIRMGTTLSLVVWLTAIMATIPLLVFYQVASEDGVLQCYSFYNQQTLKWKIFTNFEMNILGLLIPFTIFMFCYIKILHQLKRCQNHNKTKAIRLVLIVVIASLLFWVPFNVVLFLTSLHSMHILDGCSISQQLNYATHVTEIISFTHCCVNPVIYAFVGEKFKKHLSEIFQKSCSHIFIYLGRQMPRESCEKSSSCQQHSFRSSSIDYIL

Row | Binder | EC50 [nM]
17 | B9 | 1.19
18 | B10 | 1.16

target: T2, cynomolgus monkey CCR8; test: flow cytometry on CHO-cynoCCR8 cells, parental chimeric antibody
Protocol: as §2

Row | Binder | EC50 [nM]
19 | B1 | 1.78
20 | B2 | 1.32

target: T2, cynomolgus monkey CCR8; test: flow cytometry of purified Fab on cells stably expressing cynomolgus monkey CCR8
Protocol: (§3) The positive clones obtained in example 1 were re-induced to express and purified to obtain a Fab antibody. The binding to cells stably expressing human CCR8, cynomolgus monkey CCR8 and human CCR4 was tested respectively, 5×10⁴ test cells were added to each well of a 96-well U-shaped plate and centrifuged to discard the supernatant, 100 μL/well of the purified Fab antibody was added and the mixture was incubated on ice for 60 minutes. After washing away the unbound primary antibody, 50 μL of a secondary antibody solution (Anti-human IgG, F(ab′)2-AF647, Jackson Immuno Research) was added to each well and the mixture was incubated on ice for 30 minutes. After washing, 50 μL of a PI/BSA solution at 5 μg/mL was added to each well and the mixture was incubated on ice for 5 minutes. Then excess secondary antibody was washed away with 0.5% BSA, the cells were resuspended by adding a PBS solution, and binding of the antibody to the cells was detected using a flow cytometer (Intellicyte iQue).

Row | Binder | binding result
21 | B11 | binds
22 | B12 | binds

target: T1, human CCR8; test: cell-based or functional assay; remark: another data set of the same source

Row | Binder | ADCC maximal lysis rate, NK92-CD16A effectors, HEK293-hCCR8 targets [%] | ADCC half-maximal effective concentration (EC50), NK92-CD16A effectors, HEK293-hCCR8 targets [nM] | half-maximal effective concentration EC50 of inhibition of the Ca2+ current signal, CHO-hCCR8 cells, CCL1 stimulus [nM]
23 | B1 | 33 |  | 
24 | B9 |  | 0.01 | 
25 | B10 |  | 0.02 | 
26 | B13 | 58 |  | 5.59

target: T3, human CCR4 (human, UniProt P51679 1-360); test: flow cytometry of purified Fab on cells stably expressing human CCR4
T3 construct: also called hCCR4; human CCR4+ cells
T3 sequence: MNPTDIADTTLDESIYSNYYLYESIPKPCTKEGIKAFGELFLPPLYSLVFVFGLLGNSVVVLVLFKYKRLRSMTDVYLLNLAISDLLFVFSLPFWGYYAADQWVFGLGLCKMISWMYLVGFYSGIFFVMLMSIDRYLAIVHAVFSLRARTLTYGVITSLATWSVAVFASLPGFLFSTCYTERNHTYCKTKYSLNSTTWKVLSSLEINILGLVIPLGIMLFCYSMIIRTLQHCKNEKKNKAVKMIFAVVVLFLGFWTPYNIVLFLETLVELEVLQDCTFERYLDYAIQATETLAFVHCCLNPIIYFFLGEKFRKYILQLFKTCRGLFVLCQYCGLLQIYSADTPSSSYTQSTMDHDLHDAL
Protocol: as §3

Row | Binder | binding result
27 | B11 | no binding
28 | B12 | no binding

target: T2, cynomolgus monkey CCR8; test: flow cytometry, chimeric IgG on CHO-cynoCCR8 cells
Protocol: as §1

Row | Binder | EC50 [nM]
29 | B1 | 1.92
30 | B2 | 2.75
31 | B3 | 1.18
32 | B4 | 0.74
33 | B5 | 1.26
34 | B6 | 1.99
35 | B7 | 1.25
36 | B8 | 1.99

target: T1, human CCR8; test: flow cytometry on CHO-hCCR8 cells
Protocol: as §2

Row | Binder | EC50 [nM]
37 | B9 | 0.53
38 | B10 | 0.89

target: T1, human CCR8; test: flow cytometry on CHO-hCCR8 cells, parental chimeric antibody
Protocol: as §2

Row | Binder | EC50 [nM]
39 | B1 | 0.57
40 | B2 | 0.88

target: T1, human CCR8; test: cell-based or functional assay; remark: another data set of the same source

Row | Binder | ADCC EC50 (nM), PBMC FcγRIIIA158F/F effectors, HEK293-hCCR8 targets [nM] | ADCC EC50 (nM), PBMC FcγRIIIA158V/V effectors, HEK293-hCCR8 targets [nM] | ADCC maximal lysis rate, PBMC FcγRIIIA158F/F effectors, HEK293-hCCR8 targets [%] | ADCC maximal lysis rate, PBMC FcγRIIIA158V/V effectors, HEK293-hCCR8 targets [%]
41 | B1 | 0.08 | 0.05 | 68 | 76
42 | B13 | 0.01 | 0.01 | 70 | 72
